# Assay: yeast display, Sf9 membrane polyspecificity reagent, FACS + sequencing; frameworks hold sequencing errors
# Summary of the method: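 Using colony PCR, genes from sorted yeast display clones were amplified, then sequenced on MiSeq at 2 × 250 and filtered by CDR length. The clones had been stained with 10% biotinylated, detergent-solubilized Sf9 membrane reagent for 1 hour at 4 °C and sorted by FACS into low and high (top ~1%) gates on anti-HA and streptavidin fluorescence. Polyreactivity labels come from the gate of origin.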
row,Sequence,polyreactivity (PSR sort gate)
1,QVQLVESGRGLVQAGGSLRLSCAASGFTFRNYAMGWYRQAPGKERELVAAITRRGGSTYYADSVKGRFTISRDNAKNTVYLQMNSLKTEDTAVYYCNADREVPWGKDNLDYWGQGTQVTVSS,high polyreactivity
2,QVQLVESGRGLVQAGGSLRLSCAASGFTFRYYAMGWYRQAPGTERELVAAITYSGGGTYYADSVKGRFTISRDNANYTVYLQMNSLKPEDSAVYYCARRGRKAYAYWGQGTQVTVSS,high polyreactivity
3,QVQLVESGRGLVQAGGSLRLSCAASGGTFSPYAMGWYSQGPGKDRELVASITGSGGSTYYADSVKGRFTISRGNATTTVNLQMTSLNPEDTAVYYCAAQGYWTYWPYLLRLYDYWGQGTQVTVSS,low polyreactivity
4,QVQLVESGRGLVQAGGSLRLSCAASGLILGVNVMGWYRQAPGKERELVAAISGGGRTYYADSVKGRFTISRDNAKNTVYLQMNSLKPDDTAVYYCATVRRRLSLTYDYWGQVTQVTVSS,high polyreactivity
5,QVQLVESGRGLVQAGGSLRLSCAASGRIFGIYAMGWHRQAPGKEMELVATITDGTITNYADSVKGRFTISRDNAKNTVYLQMNSLKPEDTAVYYCAAGTQAHAYVVRPIEMDYWGQGTQVTVSS,low polyreactivity
6,QVQLVESGRGLVQAGGSLRLSCAASGRIFGRNTIGWYRQAPRKEREMVAVISFRGGSTYADSVKGRFTISRDNAKNTVYLQMNSLKPEDTAVYYCARTAYSTRPYRFDYWGQGTQVTVSS,high polyreactivity
7,QVQLVESGRGLVQAGGSLRLSCAASGRIFPFYAMGWYRQAPGKERELVAAISSSGGSTYYADSVKGRFTISRDNAKNTVYLQMNSLKPEDTAVYYCAATRNSDGMGYWGQGTLVTVSS,low polyreactivity
8,QVQLVESGRGLVQAGGSLRLSCAASGRIFRSYAMGWYIPAPGKERELFAAISRSGGSTYYADSVKGRFTISRDNGKNTVYLQMNSLKPEDTAVYYCASRYSLGTNSKFFAYGYWGQGTQVNVSS,high polyreactivity
9,QVQLVESGRGLVQAGGSLRLSCAASGRTFGYYAMGWYRKAPGKERELVAASTYSGARTYYADSVKGRFTISRDNAKNTVYLQRNSLKPEDTAVYYCAADTYYDDGYYYWCQGTQVTVSS,high polyreactivity
10,QVQLVESGRGLVQAGGSLRLSCAASGRTFWYYAMGWYRQAPGKERELDARISSSGGSTYADSVKGRFTISRDNAKNTVYLHMNSLKPEDTAVYYCAADRHYWKADPSQGYQHYYWGQGTQVTVSS,high polyreactivity
11,QVQLVESGRGLVQAGGSLRLSCAASGRTFYSNAMGWYRQAPGKERELVAGINWSGVSTYYADSVKGRFTISRDNAKNTVYLQMNSLKPEDTAVYYCAADTYAGYNGNYWGQGTQVTVSS,high polyreactivity
12,QVQLVESGRGLVQAGGSLRLSCAASGSICGYYTMGWYRQAPGKERELVAAITSGGSTNYADSVKGRFTISRDNAKNTVYLQMNSLKPEDTAVYYCAKVSYYPWRYDYWGQGTQVTVSS,low polyreactivity
13,QVQLVESGRGLVQAGGSLRLSCAASGSIFEINAMGWYRQAPGIERELVAAITGSGGSTHYADSVKGRFTISRDNAKNTVSLQMNSLKPEDTAVYYCAAVPRYQYGYWGQGTQVTVSS,low polyreactivity
14,QVQLVESGRGLVQAGGSLRLSCAASGSIFGGNGRGWSRQAPGKERELVAAITYSGGSTYYADSVKGRFTISRDNAKNTVYFQMNSLKPEDTAVYYCAKPSRVSIGYDYWGQGTQVTVSS,low polyreactivity
15,QVQLVESGRGLVQAGGSLRLSCAASGSIFISYAKGWYRQAPGKERELVAAITWSGDSTYYADSVKGRFTISRDNAKNTVYLQMNSLKPEDTAVYYCAKGQSRSLIYGRYGYWGQGTQVTVSS,low polyreactivity
16,QVQLVESGRGLVQAGGSLRLSCAASGSIFRRYAMGWYRQAPGKERELVAGITRSGGNTYYADSVKGRFTISRDNAKNTVYLQMNSLKPEDTAVYYCAARHRYNIRTYDAWGQGTQVTVSS,high polyreactivity
17,QVQLVESGRGLVQAGGSLRLSCAASGSNFRAYAMGWSRQAPGKERELVAAISIGGRTYYADSVKGRFTISRDNAKNTVYLQMNSLKPEDTAVYYCAAVRSYVKGGMYYWGQGTQVTVSS,low polyreactivity
18,QVQLVESGRGLVQAGGSLRLSCAASGSTFGWYSMGWYRQAPGKERELVTAITSSGDSTYYADSVKGRFTISRDNAKNTVYLQMNSLKPEDTAVYYCAADYADLNDYWGQGTQVTVSS,low polyreactivity
19,QVQLVESGRGLVQAGGSLRLSCAASGSTFIPYVMGWYRKAPGKEREFVAAIRWSGGRTRYADSVKGRFTLSRDNAKNTVYLQMNSLKPEDTAVYYCAAYRLSKPFYKYDYWGQGTQVTVSS,high polyreactivity
20,QVQLVESGRGLVQAGGSLRLSCAASGSTFRYNTMGSYRQAPGKERELVAAITGGGGSTYYADSVKGRFTISRDNAKNTVYLQMNSMKPEDTAVYYCATRSYALGYDYGGQGTQVTVSS,low polyreactivity
21,QVQLVESGRGLVQAGGSLRLSCAASGSTFSRYTMGWYRQAPGKERELVAAISYRGGSTYYADSVKGRFTISRDNAKNTVYLQMNSLKPEDTAVYYRAAEYRVEGSDYDYWGQGTQVTVSS,low polyreactivity
22,QVQLVESGRGLVQAGGSLRLSCAASGYIFVYNAMGWYRQAPGKERELVAAITDGGGSTYADSVKGRFTISRDNAKNTVYLQMMSLNPEDTADYYCAARYSDTTWYVLYYYWGQGTQVTVSS,low polyreactivity

row,Sequence,polyreactivity (PSR sort gate)
1,QVQLVESGRGLVQAGGSLRLSCASSGRIFRYYDMGWYRQAPGKERDFVAAITRSGAITYYADSVKGRFTISRDNAKNTVYLQMNSLKPEDTAVYYCNADFQDRTYDYDYWGQGTQVTVSS,low polyreactivity
2,QVQLVESGRGLVQAGGSLRLSCASSGTILERYVMGWYRQAPGKERELVAAITISRGSTYYADSVKGRFTISRDNAKNTVYLEMTRLKPEDTAVYYCAARNRYWGQGTKVTVSS,high polyreactivity
3,QVQLVESGRGLVQAGGSLRLSCAVSGSIGVYAMGWYRQAPGKERELVAAISKRGGSTRYADSVKGRFTISRDNAKNTVYLQMNSLKPEDTAVYYCAATGSVTGPRYAYDYWGQGTQVTVSS,high polyreactivity
4,QVQLVESGRGLVQAGGSLRLSCPASGRTFSTNAMGWYRQAPGKEREFVAVISSSSGSTYYADSVKGRFTISRDNAKNTVYLQMNSLKPEDTAVYYCAAGYRYRVSYSVYEFYYWGQGTQVTVSS,high polyreactivity
5,QVQLVESGRGLVQAGGSLRLSSAASGSTFVNYDMGWYRQATGKERELVAAITSSGDSTYYADSVKGRFTISRDNAKNTVYLQMNSLKPEDTAVYYCNRDDAGIMDYWGQGTQVTVSS,low polyreactivity
6,QVQLVESGRGLVQAGVSLRLSCAASGFIFYDYAMGWYRPAPGTERELVAAISSGGSTNYADSVKGLFTISRDNAKNTVYLQMNSLKPEDTAVYYCAADVRSYATWKRDYDYWGQGTQVTVSS,low polyreactivity
7,QVQLVESGRGLVQAGVSLRLSCAASGRIFTYYAMGWYRQAPGKERELVAAITTRGGRTRYADSVKGRFTISRDNAKITVYLQMNSLKPEDTAVYYCARGHSSVGPQYDYWGQGTQVTVSS,high polyreactivity
8,QVQLVESGRGLVQAQGSLRLSCAASGRIFNYNAMGWYRQAPGNERELVAVISRRGGSTYYADSVKGRFTISRDYAKNTVYLQMNSLKPEDTAVYYCGADLPSYPYEYWGLGTQVTVSS,low polyreactivity
9,QVQLVESGRGLVQEGGSLRLSCAASGRIFSAYAMGWYRQAPVKERELVAAITWSGANTDYADSVKGRFTISRDNAKNNVYLQMNSLKPEDTAVYYCNASVGRDSAYDYLGQGTQVTVSS,low polyreactivity
10,QVQLVESGRGVVQAGGSLRLSRADSGIIFLDHAMGWYRQAPGKEWELVAGINGGGRTDYADSVQGRFTISRDNAKNTVYLQMNSLTPEDTAVYYCAAESSWYSPDVNFWGQGTQVTVSS,low polyreactivity
11,QVQLVESGVALVQAGGSLRLSCAASGSILYPYAMGWYRQAPGKERELVAAITKTDGSTYYADSVKWRFTISRDNAKNTVYLQMNSLTPEDTAVYCCNAKWTLRWYFPYWSEYDYWGQGTQVTVSS,low polyreactivity
12,QVQLVESGVCIVQAGGSLRLRCASSGSSLLNNAMGWYRQAPGKERELVAAITWSGGDTYYADSVKGRFTISRDNAKNTVYLQMNCLLQEDTAVYDCAADRYQWLTAYTDDLDHDYWGQGTQVTVSS,high polyreactivity
13,QVQLVESGVCLVQAGGSLRLSCAASGRIFYYYTMGWYRQAPGKERELVAAITSGGSTYYADSVKGSFTISRDNAKNTVYLQMNSLKPEDTAVYYCNAEFDDKYDYWGQGTQVTVSS,low polyreactivity
14,QVQLVESGVCLVQAGGSLRLSCAATGSIFEYNAMGWYRQAHGKERELVAAITRGGNTYYADSVKGLFTISRDNAKNTVYLQMNSLKPEDTAVYYCAAVEWYGYPYYYWGQGTQVTVSS,low polyreactivity
15,QVQLVESGVCLVQSGGSLRLICAASGRIITPYTMGWYRQAPGKERELVATITWSGGSTYYADSVKGRFTISRDNSKNTVYLQMNSLKPEDTAVYYCAARQIYVWAEYDYWGQGTQVTVSS,low polyreactivity
16,QVQLVESGVGIVQAGGSLRLSCAASGSTLVYYDMGWYRQAPGKERELVATITGTDSTYYADSVKGRFTISRDNAKNTVYLQMNSLKPEDTADCAADRAGSRPDYDYWGQGTQVTVSS,low polyreactivity
17,QVQLVESGVGLVESGGSLRLSCASSGSTFVYTAMCWYRQSPGKERELVAAISWSGGSTYYADSVKGRFTISRDNAKKTVYLQMNSQKPEDTAVYYCAADGNPPAAMDYRGQGTQVTVSS,low polyreactivity
18,QVQLVESGVGLVKAGGSLRLSCATSGLILYRYVMGWYRQAAGKERQLVAAISSSGGRTYYADSVKGRFTISRDNAKNTVYLQMNSLKPEDTAVYYCAKRRSDARRGYDYLGQGTQVTVSS,high polyreactivity
19,QVQLVESGVGLVLAGGSLRLSCAASGRTFWSYAMGWYRKAPGKERELVAAITWSGTSTDYAVSVKGRFTISRDNAKNRVYLLMKSLKPEDTAVYYCAAIVYGQYRSRYYYWGQGTEVTVSS,high polyreactivity
20,QVQLVESGVGLVQAARSLRLSCAASGRTFGSYAMGWYRQAPGKEREFVAGISYGGGRTYYADSVKGRFTISRDTAKNTVYLQMNSLKPADTAVYYCAADGVYRYNYPYLYTYDYWGQGTQVTVSS,low polyreactivity
21,QVQLVESGVGLVQAGGSHRLSCAASGRTLWYYAIGWYRQAPGKERELVASIRRRTGSTYYAESVKGRFTISRDNAKNTVYLQLNSLKPEDTAVYYCAAKGFLRNGYWGQGTQVTVSS,high polyreactivity

# Source: the nanobody polyreactivity screen of Harvey et al. (2022)
